Measurements: US7193044B1, “Compounds and methods for regulating apoptosis, and methods of making and screening for compounds that regulate apoptosis” (Immunogen, Inc., priority 2000, dated 2007)
“Also recorded” adds a separate entry of the source.

What was measured:
[1] = target: T1, PKA (catalytic subunit from bovine heart) (Bos taurus, UniProt P00517); test: In vitro kinase assay, phosphorylation of BAD and BAD mutants by PKA; format: biochemical; settings: for in vitro phosphorylation by PKA: purified GST-tagged polypeptides, gamma-32P-ATP, autoradiography
T1 construct: 11 units PKA (catalytic subunit from bovine heart, Calbiochem); purchased Calbiochem; host or cells: bovine heart
Experimental: The ability of full-length BAD and mutant BAD S155A to bind Bcl-XL was also determined (FIG. 3(c)). Full-length BAD (“WT”) and mutant BAD S155A (“S155A”) were produced by in vitro translation and labeled with ^35S-methionine therein. The labeled proteins were then incubated with PKA (“+”) in the presence of unlabeled ATP or a buffer control (“−”). Following the kinase reactions, aliquots of each sample of the four samples were incubated with either GST or GST-Bcl-XL. The protein complex were captured on glutathione-agarose beads. Proteins bound to the beads (“Bound”) (lower panel) and samples of the reactions collected prior to incubation with the beads (“Total”) (upper panel) were analyzed by SDS-PAGE followed by autoradiography.
The GST-tagged BAD and BAD mutants were then expressed individually in cells and the purified GST-tagged polypeptides incubated with purified PKA, in the presence of ^32P radiolabel. A western blot, probed with anti-BAD antibody, was performed on the incubated GST-tagged BAD and BAD mutants to determine whether PKA could phosphorylate the BAD and/or mutant BAD in vitro. The GST-tagged BAD and BAD mutants phosphorylated by PKA could be detected directly by autoradiography due to the incorporation of ^32P radiolabel when the polypeptides were phosphorylated (FIG. 4, upper panel), whereas the total amount of BAD and mutant BAD present in the in vitro reaction was detected by the anti-BAD antibody probe (FIG. 4, lower panel).
In vitro kinase assays were carried out in 30 μl volumes containing 10 mM HEPES buffer, pH 7.5, 100 mM NaCl, 12 mM MgCl2, 1 mM dithiothreitol, […] γ^32P-ATP ([…], NEN), 11 units PKA (catalytic subunit from bovine heart, Calbiochem), and 1 μg purified GST-BAD. Reactions were incubated for 30 min at 30° C. and terminated by the addition of SDS-PAGE sample buffer. Samples were run on a 4–20% SDS-PAGE gel (Novex), transferred to a nitrocellulose membrane and phosphorylated GST-BAD was visualized by autoradiography. To verify that equal amounts of GST-BAD substrates were used, the nitrocellulose was subjected to western blot analysis with 133 ng/ml anti-BAD antibody (C-20).

HeLa cells = test: Beta-gal ELISA apoptosis assay in transfected HeLa cells; format: cell-based, human; settings: HeLa cells, 24 hours post-transfection
Experimental: Because BAD Ser155 phosphorylation, like Ser136 phosphorylation, prevents BAD from binding to Bcl-XL (FIG. 1), it was possible that by analogy, Ser155 dephosphorylation promotes cell death. To test this idea, HeLa cells were co-transfected with BAD or various BAD serine mutants and a β-gal reporter plasmid. Twenty-four hours post-transfection, cell viability was analyzed by β-gal ELISA.
To test this idea, HeLa cells were again co-transfected with BAD or various BAD serine mutants and a β-gal reporter plasmid. Forskolin was then added to half of the cultures while the other half was left untreated. Beta-gal ELISAs were performed 24 hours post transfection. […] Thus, phosphorylation of Ser155 rescues cells from BAD-induced apoptosis, while substitution of Ser155 with a nonphosphorylatable residue results in increased cell death and the failure of cells to be protected from induced PKA activity.
Beta-gal ELISA assays were performed using the β-gal ELISA system from Boehringer Mannheim, according to manufacture's instructions. Cells were transfected with BAD (or BAD mutant) and β-gal in a ratio of 5:1. The transfected cells were trypsinized and distributed into 96-well tissue culture plates. Twenty-four hours after transfection, cell extracts were obtained by lysing the cells in lysis buffer. Cell extracts (200 μl) were then added to anti-β-gal-coated microtiter plates (MTP). The MTPs were foil-covered and incubated for one hour at 37° C. Solutions were then decanted and the MTPs were washed, followed by the addition of 200 μl of anti-β-gal-DIG working solution, and incubation for an additional hour as described above. Solutions were again decanted, the MTPs washed and 200 μl of DIG-POD working solution were added. The MTPs were incubated for another hour at 37° C., the solution decanted, and the wells washed. 200 μl of substrate with enhancer were added to each well and incubated at room temperature until color development. The β-gal activity was measured by the absorbance of the sample at […]. Data were based on triplicate wells with standard deviations calculated.

B1: BAD S155A: mutant of shorter murine BAD, serine corresponding to Ser155 substituted with alanine; HA- or GST-tagged (protein)
chain: MFQIPEFEPSEQEDASATDRGLGPSLTEDQPGPYLAPGLLGSNIHQQGRAATNSHHGGAGAMETRSRHSSYPAGTEEDEGMEEELSPFRGRSRSAPPNLWAAQRYGRELRRMADEFEGSFKGLPRPKSAGTATQMRQSAGWTRIIQSWWDRNLGKGGSTPSQ
modifications: left off: small tags and cut ends
notes: mutant of shorter murine BAD, serine corresponding to Ser155 substituted with alanine; HA- or GST-tagged
- reduction of PKA catalyzed 32P-ATP incorporation ([1]; compared to the wild-type mammalian BAD substrate): more than 90%
- in vitro phosphorylation by PKA [1]: low, but detectable level
- in vitro phosphorylation by PKA ([1]; listed as GST-BAD S155A): dramatically reduced the phosphorylation
- effect of expressed BAD mutant on cellular survival / cell death (HeLa cells): greatest effect on cellular survival, with a significant increase in cell death compared to the control; also recorded: enhanced apoptotic activity compared with the wild-type mammalian BAD
